Starred links: 1 amine or outer side, 2 acyl side, 3 side chain; linkers in the order of their positions; H or OH if unused. Non-standard residues stand in square brackets, D forms with d. Primed or numbered codes have the meaning given here. No end group written: not given here. *: point of attachment. Trp(For)″ = Trp(CHO), formyl-Trp, O=Cn1cc(C[C@H](N[*:1])C(=O)[*:2])c2ccccc21; GuAmb = 4-guanidinomethylbenzoyl, N=C(N)NCc1ccc(C(=O)*)cc1; Phe(3-CF3) = N[C@@H](Cc1cccc(C(F)(F)F)c1)C(=O)O; Arg(Et)′ = arginine carrying an ethyl group; Phe(4-CN) = N#Cc1ccc(C[C@H](N)C(=O)O)cc1; Phe(4-Cl) = N[C@@H](Cc1ccc(Cl)cc1)C(=O)O; Phe(3-F) = N[C@@H](Cc1cccc(F)c1)C(=O)O; Phe(4-F) = N[C@@H](Cc1ccc(F)cc1)C(=O)O; Phe(2-F) = N[C@@H](Cc1ccccc1F)C(=O)O; Arg(Me) = CNC(=N)NCCC[C@H](N)C(=O)O; Fmoc = O=C(OCC1c2ccccc2-c2ccccc21)*; 2Pal = N[C@@H](Cc1ccccn1)C(=O)O; 3Pal = N[C@@H](Cc1cccnc1)C(=O)O; Cha = N[C@@H](CC1CCCCC1)C(=O)O; Arg(Et)″ = ethylated arginine; Dab = NCC[C@H](N)C(=O)O; azaGly = NNC(=O)O

For orientation: IC50 means the concentration that gives 50% inhibition. Higher therefore signals weaker potency.

The chains are these.
B1: [Phe(3,4F2)10]MS10 (peptide)
peptide: YNWNSFGLR[Phe(3,4F2)]-NH2
notes: also called Compound No. 198
B2: [Ala1]MS10 (peptide)
peptide: ANWNSFGLRF-NH2
notes: also called Compound No. 72
B3: [Lys3]MS10 (peptide)
peptide: YNKNSFGLRF-NH2
notes: also called Compound No. 71
B4: [Asp2]MS10 (peptide)
peptide: YDWNSFGLRF-NH2
notes: also called Compound No. 57
B5: [Lys9]MS10 (peptide)
peptide: YNWNSFGLKF-NH2
notes: also called Compound No. 44
B6: [D-Tyr1,Ser3,AzaGly7,Arg(Me)9]MS10 (peptide)
peptide: [dY]NSNSF[azaGly]L[Arg(Me)]F-NH2
notes: also called Compound No. 191
B7: [Tyr6]MS10 (peptide)
peptide: YNWNSYGLRF-NH2
notes: also called Compound No. 150
B8: [Leu2]MS10 (peptide)
peptide: YLWNSFGLRF-NH2
notes: also called Compound No. 59
B9: [D-Tyr1,Pro3,AzaGly7,Arg(Me)9]MS10 (peptide)
peptide: [dY]NPNSF[azaGly]L[Arg(Me)]F-NH2
modifications: N-terminus assumed
SMILES: CNC(=N)NCCC[C@H](NC(=O)[C@H](CC(C)C)NC(=O)NNC(=O)[C@H](Cc1ccccc1)NC(=O)[C@H](CO)NC(=O)[C@H](CC(N)=O)NC(=O)[C@@H]1CCCN1C(=O)[C@H](CC(N)=O)NC(=O)[C@H](N)Cc1ccc(O)cc1)C(=O)N[C@@H](Cc1ccccc1)C(N)=O
notes: also called Compound No. 253
B10: [Asp3]MS10 (peptide)
peptide: YNDNSFGLRF-NH2
notes: also called Compound No. 70
B11: [D-Tyr1,Thr3,AzaGly7,Arg(Me)9]MS10 (peptide)
peptide: [dY]NTNSF[azaGly]L[Arg(Me)]F-NH2
notes: also called Compound No. 221
B12: [Ala3]MS10 (peptide)
peptide: YNANSFGLRF-NH2
notes: also called Compound No. 67
B13: [Tyr5]MS10 (peptide)
peptide: YNWNYFGLRF-NH2
notes: also called Compound No. 23
B14: [D-Tyr1,D-Ala3,AzaGly7,Arg(Me)9]MS10 (peptide)
peptide: [dY]N[dA]NSF[azaGly]L[Arg(Me)]F-NH2
notes: also called Compound No. 252
B15: [Leu1]MS10 (peptide)
peptide: LNWNSFGLRF-NH2
notes: also called Compound No. 73
B16: [Leu3]MS10 (peptide)
peptide: YNLNSFGLRF-NH2
notes: also called Compound No. 68
B17: [Trp(For)10]MS10 (peptide)
peptide: YNWNSFGLR[Trp(For)″]-NH2
notes: also called Compound No. 186
B18: [Tyr2]MS10 (peptide)
peptide: YYWNSFGLRF-NH2
notes: also called Compound No. 58
B19: [Ser3]MS10 (peptide)
peptide: YNSNSFGLRF-NH2
notes: also called Compound No. 69
B20: [Val8]MS10 (peptide)
peptide: YNWNSFGVRF-NH2
notes: also called Compound No. 107
B21: des(1-2)-Acetyl-[Arg3,AzaGly7,Arg(Me)9]MS10 (peptide)
peptide: Ac-RNSF[azaGly]L[Arg(Me)]F-NH2
SMILES: CNC(=N)NCCC[C@H](NC(=O)[C@H](CC(C)C)NC(=O)NNC(=O)[C@H](Cc1ccccc1)NC(=O)[C@H](CO)NC(=O)[C@H](CC(N)=O)NC(=O)[C@H](CCCNC(=N)N)NC(C)=O)C(=O)N[C@@H](Cc1ccccc1)C(N)=O
notes: also called Compound No. 275
B22: des(1-2)-Acetyl-[Thr3,AzaGly7,Arg(Me)9]MS10 (peptide)
peptide: Ac-TNSF[azaGly]L[Arg(Me)]F-NH2
SMILES: CNC(=N)NCCC[C@H](NC(=O)[C@H](CC(C)C)NC(=O)NNC(=O)[C@H](Cc1ccccc1)NC(=O)[C@H](CO)NC(=O)[C@H](CC(N)=O)NC(=O)[C@@H](NC(C)=O)[C@@H](C)O)C(=O)N[C@@H](Cc1ccccc1)C(N)=O
notes: also called Compound No. 276
B23: [1Ψ2,CH2NH,AzaGly7,Arg(Me)9]-MS10 (peptide)
peptide: YNWNSF[azaGly]L[Arg(Me)]F-NH2
modifications: also: bond 1-2 CONH replaced by CH2NH
notes: also called Compound No. 299
B24: [Arg(Et)9]MS10 (peptide)
peptide: YNWNSFGL[Arg(Et)′]F-NH2
notes: also called Compound No. 220
B25: des(1-3)-D-Glucuronyl-[AzaGly7,Arg(Me)9]MS10 (peptide)
peptide: {D‑glucuronyl}-NSF[azaGly]L[Arg(Me)]F-NH2
notes: also called Compound No. 328
B26: [Phe(4F)10]MS10 (peptide)
peptide: YNWNSFGLR[Phe(4-F)]-NH2
notes: also called Compound No. 61
B27: [D-Tyr1,Arg(Et)9]MS10 (peptide)
peptide: [dY]NWNSFGL[Arg(Et)″]F-NH2
notes: also called Compound No. 192
B28: [Dab9]MS10 (peptide)
peptide: YNWNSFGL[Dab]F-NH2
notes: also called Compound No. 313
B29: [Phe(3CF3)10]MS10 (peptide)
peptide: YNWNSFGLR[Phe(3-CF3)]-NH2
notes: also called Compound No. 200
B30: [D-Tyr1,D-Trp3,AzaGly7,Arg(Me)9]MS10 (peptide)
peptide: [dY]N[dW]NSF[azaGly]L[Arg(Me)]F-NH2
notes: also called Compound No. 236
B31: [D-Tyr1,D-Asn2,Cha3,AzaGly7,Arg(Me)9]MS10 (peptide)
peptide: [dY][dN][Cha]NSF[azaGly]L[Arg(Me)]F-NH2
notes: also called Compound No. 283
B32: [Phe(3F)10]MS10 (peptide)
peptide: YNWNSFGLR[Phe(3-F)]-NH2
notes: also called Compound No. 197
B33: [D-Tyr1,Pya(3)3,AzaGly7,Arg(Me)9]MS10 (peptide)
peptide: [dY]N[3Pal]NSF[azaGly]L[Arg(Me)]F-NH2
notes: also called Compound No. 251
B34: [D-Tyr1,Cha3,6,Arg(Me)9]MS10 (peptide)
peptide: [dY]N[Cha]NS[Cha]GL[Arg(Me)]F-NH2
notes: also called Compound No. 181
B35: [Phe(4CN)10]MS10 (peptide)
peptide: YNWNSFGLR[Phe(4-CN)]-NH2
notes: also called Compound No. 77
B36: [Phe(4Cl)10]MS10 (peptide)
peptide: YNWNSFGLR[Phe(4-Cl)]-NH2
notes: also called Compound No. 130
B37: [D-Tyr1,D-Trp3,Arg(Me)9]MS10 (peptide)
peptide: [dY]N[dW]NSFGL[Arg(Me)]F-NH2
notes: also called Compound No. 142
B38: des(1-2)-[D-Trp3,Arg(Me)9]MS10 (peptide)
peptide: [dW]NSFGL[Arg(Me)]F-NH2
notes: also called Compound No. 223
B39: [D-Tyr1,Pya(2)3,AzaGly7,Arg(Me)9]MS10 (peptide)
peptide: [dY]N[2Pal]NSF[azaGly]L[Arg(Me)]F-NH2
notes: also called Compound No. 285
B40: des(1-2)-Fmoc-[Arg(Me)9]MS10 (peptide)
peptide: Fmoc-WNSFGL[Arg(Me)]F-NH2
notes: also called Compound No. 145
B41: [Pya(3)10]MS10 (peptide)
peptide: YNWNSFGLRX
modifications: Pya(3)10; C-terminal amide
notes: also called Compound No. 60
B42: des(1)-MS10 (peptide)
peptide: NWNSFGLRF-NH2
notes: also called Compound No. 4
B43: [7Ψ8,CH2NH,D-Tyr1,Arg(Me)9]MS10 (peptide)
peptide: [dY]NWNSFGL[Arg(Me)]F-NH2
modifications: also: bond 7-8 CONH replaced by CH2NH
notes: also called Compound No. 307
B44: [Phe(2F)10]MS10 (peptide)
peptide: YNWNSFGLR[Phe(2-F)]-NH2
notes: also called Compound No. 19
B45: des(1-5)-GuAmb-[AzaGly7,Arg(Me)9,Trp10]MS10 (peptide)
peptide: GuAmb-F[azaGly]L[Arg(Me)]W-NH2
B46: des(1)-[D-Asn2,Cha3,AzaGly7,Arg(Me)9]MS10 (peptide)
peptide: [dN][Cha]NSF[azaGly]L[Arg(Me)]F-NH2
B47: des(1-2)-Acetyl-[Ala3,AzaGly7,Arg(Me)9]MS10 (peptide)
peptide: Ac-ANSF[azaGly]L[Arg(Me)]F-NH2
SMILES: CNC(=N)NCCC[C@H](NC(=O)[C@H](CC(C)C)NC(=O)NNC(=O)[C@H](Cc1ccccc1)NC(=O)[C@H](CO)NC(=O)[C@H](CC(N)=O)NC(=O)[C@H](C)NC(C)=O)C(=O)N[C@@H](Cc1ccccc1)C(N)=O

For the first experiment, the target named is T1, human OT7T175 (metastin receptor) (human, UniProt Q969F8 1-398).
T1 construct: expressed on CHO cells; also called hOT7T175; hOT7T175-expressed CHO cells
T1 sequence (Q969F8 whole entry L364H): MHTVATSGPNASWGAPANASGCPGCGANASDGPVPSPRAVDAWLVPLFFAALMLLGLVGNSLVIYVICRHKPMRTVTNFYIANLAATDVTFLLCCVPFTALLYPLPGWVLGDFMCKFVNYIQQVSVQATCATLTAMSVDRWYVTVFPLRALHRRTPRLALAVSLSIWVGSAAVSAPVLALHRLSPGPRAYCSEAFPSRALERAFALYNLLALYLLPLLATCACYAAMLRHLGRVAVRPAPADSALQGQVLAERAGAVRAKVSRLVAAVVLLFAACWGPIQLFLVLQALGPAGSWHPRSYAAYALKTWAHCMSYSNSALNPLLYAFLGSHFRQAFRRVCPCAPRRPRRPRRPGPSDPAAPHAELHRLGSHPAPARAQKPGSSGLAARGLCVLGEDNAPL
In words: competition with Cy-5 metastin (40-54) on hOT7T175-CHO cells, FMAT. On the procedure: hOT7T175-Expressed CHO cells were cultured in MEM-α medium (nucleic acid-free) containing 10% dialyzed serum. The medium was removed and the adhered cells were washed with PBS. Then, PBS containing 5 mM EDTA was added and the cells were scraped from a flask with a cell scraper.
To each well of a 96-Well Black Clear Bottom Microplate (Applied Biosystems, Inc.), 10 μL of assay buffer containing 1% dimethylsulfoxide was added to examine total binding, 10 μL of 10 μM non-labeled peptide (having the same amino acid sequence as that of labeled one) solution diluted with assay buffer to examine non-specific binding, and 10 μL of a test compound diluted with assay buffer to examine a binding inhibition activity of the test compound, and furthermore, 90 μL each of the cell suspension was dispensed to each well. […] Specific binding is calculated as non-specific binding subtracted from total binding. The binding inhibition activity of a test compound is shown by a ratio of the value obtained by subtracting a measured value in presence of a test compound from the total binding to the specific binding.
B1: the IC50 is 170 nM. Same read-out and setting: next, B2: 540 nM. Still for that read-out and setting: next, B3: 66 nM; B4: 100 nM; B5: 190 nM. Still for that read-out and setting: next, B6: 300 nM; B7: 320 nM. For B8, the IC50 was found to be 340 nM. Still for that read-out and setting: the figure for B9 is 27 nM; for B10 it is 200 nM; for B11 it is 95 nM. Still for that read-out and setting: next, B12: 27 nM; B13: 400 nM; B14: 580 nM.

In turn, B15 gave a half-maximal inhibitory concentration (IC50) of 220 nM. B16 yielded an IC50 of 7.7 nM. Same read-out and setting: next, B17: 460 nM; B18: 16 nM; B19: 83 nM. The same measure, in the same setting: next, B20: 120 nM.

On to B21, for which the IC50 turned out to be 410 nM.

Molecule B22 showed an IC50 of 480 nM. Same read-out and setting: next, B23: 1.2 nM; B24: 330 nM; B25: 470 nM. B26: the half-inhibitory concentration (IC50) came to 13 nM. On the same count and under the same terms, next, B27: 530 nM; B28: 690 nM; B29: 340 nM. Same read-out and setting: next, B30: 42 nM; B31: 0.69 nM; B32: 170 nM. Still for that read-out and setting: the figure for B33 is 87 nM; for B34 it is 19 nM. The molecule B35 came in with a half-maximal inhibitory concentration (IC50) of 7.4 nM. The same measure, in the same setting: next, B36: 42 nM; B37: 26 nM.

Take B38: the IC50 was determined as 760 nM. Molecule B39 yielded a half-maximal inhibitory concentration (IC50) of 40 nM. Still for that read-out and setting: next, B40: 120 nM.

B41 returned an IC50 of 170 nM. On to B42, for which the concentration for half-maximal inhibition (IC50) came out at 260 nM. On the same count and under the same terms, the figure for B43 is 64 nM. In the case of B44, the IC50 is 8.6 nM.

The target of a further experiment is T1, human OT7T175 (metastin receptor). The experiment is described as follows: cell-based or functional assay.
On to B45, for which the “Ca ion level-increasing activity (FLIPR)” value was 5 x Metastin (1-54). As for B46, the “Ca ion level-increasing activity (FLIPR)” value was 1 x Metastin (1-54). On the same count and under the same terms, next, B47: 1 x Metastin (1-54).

The values above are taken from US20090298765A1 (Takeda / Millennium, published 2009).
